Test results reported in US20200079833A1 (AstraZeneca / MedImmune, published 2020).
Starred links: 1 amine or outer side, 2 acyl side, 3 side chain; linkers in the order of their positions; H or OH if unused. Non-standard residues stand in square brackets, D forms with d. Groups on a side chain read outwards from the residue. Primed or numbered codes have the meaning given here. No end group written: not given here. *: point of attachment. γGlu = O=C(O)[C@H](CCC(=O)[*:2])N[*:1]; Palmitoyl = CCCCCCCCCCCCCCCC(=O)*; αMeF = C[C@](N)(Cc1ccccc1)C(=O)O; αMeK = C[C@](N)(CCCCN)C(=O)O; Lauroyl = CCCCCCCCCCCC(=O)*; PEG2′ = not defined here; Aib = CC(C)(N)C(=O)O

T1: glucose-dependent insulinotropic peptide (gastric inhibitory polypeptide) receptor (GIPR), primary cAMP assay (human, UniProt P48546 22-466)
T1 sequence (looked up): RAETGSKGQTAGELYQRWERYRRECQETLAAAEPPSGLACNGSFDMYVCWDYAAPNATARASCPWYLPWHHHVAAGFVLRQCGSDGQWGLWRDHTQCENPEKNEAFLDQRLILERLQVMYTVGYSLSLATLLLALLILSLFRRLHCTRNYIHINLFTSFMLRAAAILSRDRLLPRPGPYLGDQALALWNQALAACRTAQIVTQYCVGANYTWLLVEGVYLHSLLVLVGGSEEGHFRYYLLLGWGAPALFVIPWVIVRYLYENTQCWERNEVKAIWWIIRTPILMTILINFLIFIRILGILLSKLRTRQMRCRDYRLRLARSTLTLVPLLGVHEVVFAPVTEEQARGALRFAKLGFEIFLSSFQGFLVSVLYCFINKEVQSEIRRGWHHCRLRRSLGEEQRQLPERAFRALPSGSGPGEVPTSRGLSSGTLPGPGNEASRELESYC

T2: GLP-1R in the INS1e assay (UniProt P32301 22-463, limits assumed)
T2 sequence (looked up): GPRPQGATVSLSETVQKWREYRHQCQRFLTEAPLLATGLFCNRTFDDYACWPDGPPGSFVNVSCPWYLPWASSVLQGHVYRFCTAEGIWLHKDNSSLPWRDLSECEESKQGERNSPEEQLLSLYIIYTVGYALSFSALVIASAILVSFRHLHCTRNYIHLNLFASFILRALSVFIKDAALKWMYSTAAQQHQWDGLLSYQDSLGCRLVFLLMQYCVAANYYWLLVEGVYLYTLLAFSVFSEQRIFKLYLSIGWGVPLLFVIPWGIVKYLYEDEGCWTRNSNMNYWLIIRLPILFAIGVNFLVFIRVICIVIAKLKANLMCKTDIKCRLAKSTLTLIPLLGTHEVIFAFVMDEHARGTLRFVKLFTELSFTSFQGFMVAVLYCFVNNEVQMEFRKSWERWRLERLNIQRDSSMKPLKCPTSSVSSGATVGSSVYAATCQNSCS

B1: SEQ ID NO: 241 (peptide)
peptide: H[Aib]EGS[αMeF]TSDVSK([PEG2′-PEG2′-γGlu-Lauroyl])FLEGEAAEEFIK([PEG2′-PEG2′-γGlu-Lauroyl])FVVEGG-NH2
B2: SEQ ID NO: 252 (peptide)
peptide: H[Aib]EGS[αMeF]TSDVSK([PEG2′-PEG2′-γGlu-Lauroyl])YLEGEAA[αMeK]EFIAK([PEG2′-PEG2′-γGlu-Lauroyl])VVEGG-NH2
B3: SEQ ID NO: 251 (peptide)
peptide: H[Aib]EGS[αMeF]TSDVSK([PEG2′-PEG2′-γGlu-Palmitoyl])YLEGEAA[αMeK]EFIK([PEG2′-PEG2′-γGlu-Palmitoyl])WVVEGG-NH2
B4: SEQ ID NO: 240 (peptide)
peptide: H[Aib]EGS[αMeF]TSDVSK([PEG2′-PEG2′-γGlu-Lauroyl])YLEGEAAEEFIK([PEG2′-PEG2′-γGlu-Lauroyl])WVVEGG-NH2
B5: SEQ ID NO: 246 (peptide)
peptide: H[Aib]EGS[αMeF]TSDVSK([PEG2′-PEG2′-γGlu-Palmitoyl])YLEGEAAEEFIK([PEG2′-PEG2′-γGlu-Palmitoyl])WVVEGG-NH2

Molecular target: GLP-1 receptor (GLP-1R), primary cAMP assay (human, UniProt P43220 24-463)
Experiment: cell-based or functional assay

In order of rising “Primary assay EC50 (cAMP) Mean” value:
1. B2  2.5 pM
2. B1  9.6 pM
3. B4  14 pM
4. B3  31.1 pM
5. B5  1400 pM

In order of rising “Primary assay EC50 (cAMP), n1” value:
1. B2  2.88 pM
2. B1  7.55 pM
3. B4  10.9 pM
4. B3  16 pM
5. B5  999 pM

In order of rising “Primary assay EC50 (cAMP), n2” value:
1. B2  2.17 pM
2. B1  11.6 pM
3. B4  17.1 pM
4. B3  46.2 pM
5. B5  1800 pM

Molecular target: glucagon receptor (GCGR), primary cAMP assay (human, UniProt P47871 26-477)
Experiment: cell-based or functional assay

Sequence of glucagon receptor (GCGR), primary cAMP assay (P47871 26-477): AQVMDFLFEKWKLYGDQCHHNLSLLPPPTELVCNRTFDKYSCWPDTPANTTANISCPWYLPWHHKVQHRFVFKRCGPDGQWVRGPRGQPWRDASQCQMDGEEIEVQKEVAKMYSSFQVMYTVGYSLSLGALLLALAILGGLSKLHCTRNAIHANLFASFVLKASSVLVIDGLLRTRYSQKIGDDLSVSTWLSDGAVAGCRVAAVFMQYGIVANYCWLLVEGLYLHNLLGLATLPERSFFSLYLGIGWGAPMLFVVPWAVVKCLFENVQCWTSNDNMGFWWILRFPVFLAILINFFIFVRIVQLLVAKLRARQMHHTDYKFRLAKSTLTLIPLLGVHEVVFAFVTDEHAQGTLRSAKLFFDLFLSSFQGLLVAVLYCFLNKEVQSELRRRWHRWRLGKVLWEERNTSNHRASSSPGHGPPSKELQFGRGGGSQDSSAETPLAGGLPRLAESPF

In order of rising “Primary assay EC50 (cAMP), n1” value:
1. B3  21.3 nM
2. B5  21.4 nM
3. B4  22.2 nM
4. B1  22.5 nM
5. B2  22.7 nM

In order of rising “Primary assay EC50 (cAMP), n2” value:
1. B3  21.3 nM
2. B5  21.4 nM
3. B4  22.2 nM
4. B1  22.5 nM
5. B2  22.7 nM

Molecular target: T1, glucose-dependent insulinotropic …
Experiment: cell-based or functional assay

In order of falling “Primary assay EC50 (cAMP), n1” value:
1. B2  22.7 nM
2. B1  22.5 nM
3. B4  22.2 nM
4. B5  21.4 nM
5. B3  21.3 nM

In order of rising “Primary assay EC50 (cAMP), n2” value:
1. B3  21.3 nM
2. B5  21.4 nM
3. B4  22.2 nM
4. B1  22.5 nM
5. B2  22.7 nM

Molecular target: T2, GLP-1R in the INS1e assay
Experiment: cell-based or functional assay

In order of falling “INS1e assay EC50 (cAMP) Mean” value:
1. B5  71.3 nM
2. B3  7.16 nM
3. B1  6.28 nM
4. B4  6.02 nM
5. B2  0.175 nM

In order of rising “INS1e assay EC50 (cAMP) n1” value:
1. B2  0.184 nM
2. B1  5.84 nM
3. B3  6.47 nM
4. B4  6.86 nM
5. B5  71.3 nM

In order of falling “INS1e assay EC50 (cAMP) n2” value:
1. B5  71.3 nM
2. B3  7.85 nM
3. B1  6.71 nM
4. B4  5.17 nM
5. B2  0.166 nM
